Laboratory results: publication PMC11253609, “Ancient nitrogenases are ATP dependent” (mBio, 2024)

T1: Extant Strep-NifD2K2 (dinitrogenase, MoFe protein), Azotobacter vinelandii strain DJ2102 (Azotobacter vinelandii) (UniProt P07328)
T1 sequence 1: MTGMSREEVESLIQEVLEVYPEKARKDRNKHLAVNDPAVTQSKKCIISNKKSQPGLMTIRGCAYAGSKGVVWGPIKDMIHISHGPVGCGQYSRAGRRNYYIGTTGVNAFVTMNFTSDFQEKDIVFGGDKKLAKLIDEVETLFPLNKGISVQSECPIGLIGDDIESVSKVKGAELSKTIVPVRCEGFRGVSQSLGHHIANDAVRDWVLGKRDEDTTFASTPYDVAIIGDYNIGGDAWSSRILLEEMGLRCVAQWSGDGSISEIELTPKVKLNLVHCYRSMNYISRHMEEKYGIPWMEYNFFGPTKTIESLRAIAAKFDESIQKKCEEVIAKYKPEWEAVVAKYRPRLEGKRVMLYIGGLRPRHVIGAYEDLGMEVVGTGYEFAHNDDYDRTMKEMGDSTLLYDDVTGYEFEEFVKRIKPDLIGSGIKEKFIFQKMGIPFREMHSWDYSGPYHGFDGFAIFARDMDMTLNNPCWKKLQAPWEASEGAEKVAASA
T1 sequence 2: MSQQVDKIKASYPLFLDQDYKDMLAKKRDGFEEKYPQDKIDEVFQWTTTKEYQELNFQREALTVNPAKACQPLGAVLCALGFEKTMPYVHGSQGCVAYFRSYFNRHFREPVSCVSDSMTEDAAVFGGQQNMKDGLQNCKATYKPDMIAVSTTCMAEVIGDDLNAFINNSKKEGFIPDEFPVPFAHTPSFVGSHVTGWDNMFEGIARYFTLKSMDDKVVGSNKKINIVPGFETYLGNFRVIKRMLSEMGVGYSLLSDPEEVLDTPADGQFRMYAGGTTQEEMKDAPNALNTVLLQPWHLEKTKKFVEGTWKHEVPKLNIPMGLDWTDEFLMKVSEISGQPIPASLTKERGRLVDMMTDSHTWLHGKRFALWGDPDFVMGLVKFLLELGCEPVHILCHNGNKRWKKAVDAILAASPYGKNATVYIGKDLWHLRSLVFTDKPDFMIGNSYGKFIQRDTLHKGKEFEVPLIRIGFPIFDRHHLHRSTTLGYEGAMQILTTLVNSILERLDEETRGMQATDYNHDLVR

T2: Extant Strep-II-tagged NifD (nitrogenase molybdenum-iron protein alpha chain), Azotobacter vinelandii strain … (Azotobacter vinelandii, UniProt P07328 1-492)
T2 construct: nitrogenase molybdenum-iron protein alpha chain NifD, Azotobacter vinelandii, UniProtKB P07328; expressed from the A. vinelandii genome; The end that carries the Strep-II tag is stated only for the ancestral NifD (N-terminus); also called Strep-II-tagged WT NifD; D subunit
T2 sequence (looked up): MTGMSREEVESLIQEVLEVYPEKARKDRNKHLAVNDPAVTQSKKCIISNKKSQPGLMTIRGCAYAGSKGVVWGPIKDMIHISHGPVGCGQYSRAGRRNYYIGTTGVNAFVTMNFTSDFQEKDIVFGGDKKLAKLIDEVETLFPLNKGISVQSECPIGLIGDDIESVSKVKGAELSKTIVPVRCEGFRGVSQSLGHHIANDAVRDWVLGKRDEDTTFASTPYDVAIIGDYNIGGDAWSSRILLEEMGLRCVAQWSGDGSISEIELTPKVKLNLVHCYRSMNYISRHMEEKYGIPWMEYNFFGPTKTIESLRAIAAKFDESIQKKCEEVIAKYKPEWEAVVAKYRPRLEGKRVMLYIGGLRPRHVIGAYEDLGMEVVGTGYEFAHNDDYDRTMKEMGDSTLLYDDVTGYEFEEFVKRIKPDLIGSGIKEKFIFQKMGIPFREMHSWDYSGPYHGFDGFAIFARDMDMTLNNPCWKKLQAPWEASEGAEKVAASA


Experiments:
[1] = molecular target: T1, Extant Strep-NifD2K2 (dinitrogenase, MoFe protein), Azotobacter vinelandii strain DJ2102 (Azotobacter vinelandii)
[2] = molecular target: T2, Extant Strep-II-tagged NifD …; assay: co-purification (Strep-Tactin affinity chromatography) with densitometry of SDS-PAGE bands; Strep-II-tagged NifD captured on Strep-Tactin from A. vinelandii cells; NifK found with it on SDS-PAGE (Coomassie blue); anaerobic handling; details: partners not purified

Chain of Extant NifH2 (dinitrogenase reductase, nitrogenase iron protein 1), Azotobacter vinelandii strain DJ884 (P00459 2-290): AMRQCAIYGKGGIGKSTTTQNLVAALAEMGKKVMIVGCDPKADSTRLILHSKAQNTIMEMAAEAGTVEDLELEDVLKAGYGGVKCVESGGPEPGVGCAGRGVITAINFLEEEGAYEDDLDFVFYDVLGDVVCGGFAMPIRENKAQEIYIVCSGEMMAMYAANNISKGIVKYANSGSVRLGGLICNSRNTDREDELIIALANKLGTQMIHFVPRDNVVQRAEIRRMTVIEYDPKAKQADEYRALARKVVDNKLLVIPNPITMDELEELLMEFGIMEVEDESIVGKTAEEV

inorganic phosphate released per electron transferred (Pi/e- ratio) during N2 reduction, 2 min under 1 atm N2; 0.42 µM NifD2K2 and 8.4 µM NifH2, 10 mM MgATP [1] [ATP/e-]	stoichiometry N [2]	Molecule
2.8	–	Extant NifH2 (dinitrogenase reductase, nitrogenase iron protein 1), Azotobacter vinelandii strain DJ884 (from UniProt P00459 2-290) (enzyme)
–	0.93 D:K	Extant NifK (nitrogenase molybdenum-iron protein beta chain), Azotobacter vinelandii strain DJ2102 (enzyme, UniProt P07329 1-523, looked up, nitrogenase molybdenum-iron protein beta chain NifK, Azotobacter vinelandii, UniProtKB P07329; also called K subunit) MSQQVDKIKASYPLFLDQDYKDMLAKKRDGFEEKYPQDKIDEVFQWTTTKEYQELNFQREALTVNPAKACQPLGAVLCALGFEKTMPYVHGSQGCVAYFRSYFNRHFREPVSCVSDSMTEDAAVFGGQQNMKDGLQNCKATYKPDMIAVSTTCMAEVIGDDLNAFINNSKKEGFIPDEFPVPFAHTPSFVGSHVTGWDNMFEGIARYFTLKSMDDKVVGSNKKINIVPGFETYLGNFRVIKRMLSEMGVGYSLLSDPEEVLDTPADGQFRMYAGGTTQEEMKDAPNALNTVLLQPWHLEKTKKFVEGTWKHEVPKLNIPMGLDWTDEFLMKVSEISGQPIPASLTKERGRLVDMMTDSHTWLHGKRFALWGDPDFVMGLVKFLLELGCEPVHILCHNGNKRWKKAVDAILAASPYGKNATVYIGKDLWHLRSLVFTDKPDFMIGNSYGKFIQRDTLHKGKEFEVPLIRIGFPIFDRHHLHRSTTLGYEGAMQILTTLVNSILERLDEETRGMQATDYNHDLVR
